Read-outs that look alike come from different tables or passages of the source.
Experiments:
Assay in all cases: cell-based or functional assay
Human TGFβ1 (human) [1] = biological target: Human TGFβ1 (human) (UniProt P01137)
Human TGFβ3 (human) [2] = biological target: Human TGFβ3 (human) (UniProt P10600)
Human TGFβ1 (human) [3] = biological target: Human TGFβ1 (human) (UniProt P01137); remark: listed apart in the source
Human TGFβ3 (human) [4] = biological target: Human TGFβ3 (human) (UniProt P10600); remark: listed apart in the source

Sequence of hTβRIIshort(23-159)-hG2Fc (Fc fusion) (chain): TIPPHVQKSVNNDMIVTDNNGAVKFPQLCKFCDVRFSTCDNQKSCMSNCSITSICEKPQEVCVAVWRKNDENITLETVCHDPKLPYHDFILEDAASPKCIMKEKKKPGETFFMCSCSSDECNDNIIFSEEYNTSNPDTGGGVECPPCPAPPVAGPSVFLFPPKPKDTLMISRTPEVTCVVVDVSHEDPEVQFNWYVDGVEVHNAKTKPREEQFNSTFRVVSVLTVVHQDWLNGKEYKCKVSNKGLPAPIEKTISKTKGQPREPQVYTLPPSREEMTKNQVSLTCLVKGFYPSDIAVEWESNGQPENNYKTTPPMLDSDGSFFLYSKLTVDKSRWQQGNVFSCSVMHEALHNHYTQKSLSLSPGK
Sequence of Human TGFβ3 (human) (P10600 301-412 limits assumed): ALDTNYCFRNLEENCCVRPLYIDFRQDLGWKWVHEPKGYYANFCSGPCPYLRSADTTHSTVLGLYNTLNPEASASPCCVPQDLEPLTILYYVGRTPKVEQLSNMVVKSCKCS
Sequence of Human TGFβ1 (human) (P01137 279-390 limits assumed): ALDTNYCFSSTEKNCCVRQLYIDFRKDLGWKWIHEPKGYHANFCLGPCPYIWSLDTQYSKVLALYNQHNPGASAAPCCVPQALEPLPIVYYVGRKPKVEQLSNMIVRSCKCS
Sequence of hTβRIIshort(35-159)-hG2Fc (Fc fusion) (chain): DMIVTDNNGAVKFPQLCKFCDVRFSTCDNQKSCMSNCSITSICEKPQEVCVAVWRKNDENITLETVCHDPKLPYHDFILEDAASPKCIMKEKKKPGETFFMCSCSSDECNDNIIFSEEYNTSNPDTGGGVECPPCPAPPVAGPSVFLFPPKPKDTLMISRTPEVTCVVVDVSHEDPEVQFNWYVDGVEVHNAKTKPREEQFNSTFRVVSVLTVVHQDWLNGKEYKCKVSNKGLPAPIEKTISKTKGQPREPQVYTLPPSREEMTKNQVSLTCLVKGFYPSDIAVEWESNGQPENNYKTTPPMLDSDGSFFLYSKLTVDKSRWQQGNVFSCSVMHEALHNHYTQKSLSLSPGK
Sequence of hTβRIIshort(23-153)-hG2Fc (Fc fusion) (chain): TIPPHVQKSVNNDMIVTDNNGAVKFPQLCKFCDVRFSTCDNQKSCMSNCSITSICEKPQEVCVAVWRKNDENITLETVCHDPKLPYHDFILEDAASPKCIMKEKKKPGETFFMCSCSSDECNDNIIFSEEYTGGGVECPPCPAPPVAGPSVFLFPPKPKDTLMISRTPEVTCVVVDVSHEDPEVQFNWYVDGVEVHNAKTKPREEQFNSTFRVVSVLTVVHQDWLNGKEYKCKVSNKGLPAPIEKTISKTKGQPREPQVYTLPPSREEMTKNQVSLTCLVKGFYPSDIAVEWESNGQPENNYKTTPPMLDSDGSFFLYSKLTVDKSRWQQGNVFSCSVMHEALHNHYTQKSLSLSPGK
Sequence of hTβRIIshort(29-159)-hG2Fc (Fc fusion) (chain): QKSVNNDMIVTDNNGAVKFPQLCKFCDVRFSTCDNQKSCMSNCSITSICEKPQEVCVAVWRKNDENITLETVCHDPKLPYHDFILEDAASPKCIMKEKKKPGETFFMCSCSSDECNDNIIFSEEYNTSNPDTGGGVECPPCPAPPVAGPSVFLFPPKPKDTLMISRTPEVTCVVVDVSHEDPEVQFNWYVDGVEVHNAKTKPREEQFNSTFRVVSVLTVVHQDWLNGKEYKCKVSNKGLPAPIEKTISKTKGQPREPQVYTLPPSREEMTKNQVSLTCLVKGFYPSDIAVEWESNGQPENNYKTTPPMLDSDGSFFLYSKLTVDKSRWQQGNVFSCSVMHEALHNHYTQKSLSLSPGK

hTβRIIshort(23-153)-hG2Fc (Fc fusion)
IC50 (nM), A549 CAGA12 reporter gene assay, hTGFβ1 (640 pg/ml) (Human TGFβ1 (human) [1]): 2.62 nM
IC50 (nM), A549 CAGA12 reporter gene assay, hTGFβ3 (270 pg/ml) (Human TGFβ3 (human) [2]): 0.14 nM

hTβRIIshort(23-153/N70D)-hG2Fc (Fc fusion)
IC50 (nM), A549 CAGA12 reporter gene assay, hTGFβ1 (640 pg/ml) (Human TGFβ1 (human) [1]): 17.7 nM

hTβRIIshort(23-159)-hG2Fc (Fc fusion)
IC50 (nM), A549 CAGA12 reporter gene assay, hTGFβ1 (640 pg/ml) (Human TGFβ1 (human) [1]): 1.73 nM
IC50 (nM), A549 CAGA12 reporter gene assay, hTGFβ3 (270 pg/ml) (Human TGFβ3 (human) [2]): 0.14 nM
IC50 (nM), A549 CAGA12 reporter gene assay, hTGFβ1 (640 pg/ml) (Human TGFβ1 (human) [3]): 0.52 nM
IC50 (nM), A549 CAGA12 reporter gene assay, hTGFβ3 (270 pg/ml) (Human TGFβ3 (human) [4]): 0.37 nM

hTβRIIshort(23-159/D110K)-hG2Fc (Fc fusion)
IC50 (nM), A549 CAGA12 reporter gene assay, hTGFβ1 (640 pg/ml) (Human TGFβ1 (human) [1]): > 73.6 nM

hTβRIIshort(29-159)-hG2Fc (Fc fusion)
IC50 (nM), A549 CAGA12 reporter gene assay, hTGFβ1 (640 pg/ml) (Human TGFβ1 (human) [3]): 2.05 nM
IC50 (nM), A549 CAGA12 reporter gene assay, hTGFβ3 (270 pg/ml) (Human TGFβ3 (human) [4]): > 7.5 nM

hTβRIIshort(35-159)-hG2Fc (Fc fusion)
IC50 (nM), A549 CAGA12 reporter gene assay, hTGFβ1 (640 pg/ml) (Human TGFβ1 (human) [3]): 2.51 nM
IC50 (nM), A549 CAGA12 reporter gene assay, hTGFβ3 (270 pg/ml) (Human TGFβ3 (human) [4]): > 7.5 nM

Source: patent publication US20180222956A1
